Results taken from patent US7485710B2, “Nucleic acids coding for adhesion factor of group B streptococcus, adhesion factors of group B streptococcus and further uses thereof” (priority 2002, dated 2009).
The star is where a group is joined. Biotin = O=C1N[C@H]2[C@H](CS[C@H]2CCCCC(=O)*)N1; Ahx = NCCCCCC(=O)O

B1: FbsA-19: hexahistidyl-tagged FbsA protein from S. agalactiae 6313 with 19 repeats, devoid of signal peptide and membrane-spanning region (protein)
chain: MDSVGNQSQGNVLERRQRDAENRSQGNVLERRQRDVENKSQGNVLERRQRDAENKSQGNVLERRQRDAENRSQGNVLERRQRDAENRSQGNVLERRQRDAENRSQGNVLERRQRDAENRSQGNVLERRQRDAENRSQGNVLERRQRDVENKSQGNVLERRQRDAENKSQGNVLERRQRDAENRSQGNVLERRQRDAENRSQGNVLERRQRDAENRSQGNVLERRQRDAENRSQGNVLERRQRDAENRSQGNVLERRQRDAENRSQGNVLERRQRDAENRSQGNVLERRQRDAENRSQGNVLERRQRDAENKSQVGQLIGKNPLLSKSIISRENNHSSQGDSNKQSFSKKVSQVTNVANRPMLTNNSRTISVINKLPKTGDDQNV
modifications: left off: small tags and cut ends
notes: hexahistidyl-tagged FbsA protein from S. agalactiae 6313 with 19 repeats, devoid of signal peptide and membrane-spanning region

Tests used:
[1] = system: IgG and IgA antibodies in sera from patients infected with GBS; experiment: Peptide ELISA of FbsA peptides with human sera; type: binding; details: five sera, dilutions 1:200 and 1:1,000
Source text: The 5 biotinylated peptides (wild type <1>: GNVLERRQRDAENRSQ SEQ ID No. 113; alanine mutant peptides: <2> GAVLERRQRDAENRSQ SEQ ID No. 207, <3> GNALERRQRDAENRSQ SEQ ID No. 208, <4> GNVLEARQRDAENRSQ SEQ ID No. 211, <5> GNVLERAQRDAENRSQ SEQ ID No. 212; see also FIG. 11) were coated on Streptavidin-coated ELISA plates and analysed using 5 sera from patients infected with GBS. The patient sera were applied in a dilution of 1:200 and 1:1,000. IgG (A) and IgA (B) antibodies were detected with secondary anti-human antibodies coupled to Horse Radish Peroxidase and ABTS as substrate.
Biotin-labeled peptides were coating on Streptavidin ELISA plates (EXICON) at 10 μg/ml concentration according to the manufacturer's instructions. Sera were tested at two dilutions, 200× and 1,000×.
Highly specific Horse Radish Peroxidase (HRP)-conjugated anti-human IgG or anti-human IgA secondary antibodies (Southern Biotech) were used according to the manufacturers' recommendations (dilution: 1,000×). Antigen-antibody complexes were quantified by measuring the conversion of the substrate (ABTS) to colored product based on OD405nm readings in an automated ELISA reader (TECAN SUNRISE). Following manual coating, peptide plates were processed and analyzed by the Gemini 160 ELISA robot (TECAN) with a built-in reader (GENIOS, TECAN).

A549 cells [2] = experiment: Epithelial cell adherence and internalization assay of GBS 6313 in presence of proteins; type: cell-based, human; details: pre-treatment of A549 cells with increasing amounts of protein
Description: The adherence of GBS 6313 to A549 cells (A) and its internalization into these cells (B) was arbitrarily set to 100% and the results obtained in the presence of the different fusion proteins was related to these values. Each experiment was performed at least three times in triplicate.
Adherence of GBS to epithelial cells and internalization into epithelial cells was assayed essentially as described previously (Caparon et al., 1991; Rubens et al. 1992). Briefly, A549 cells were transferred to 24-well tissue culture plates at approximately 4×10^5 cells per well and cultivated overnight in RPMI (Gibco BRL) tissue culture medium, supplemented with 10% of fetal calf serum. After replacement of the medium with 1 ml of fresh medium, the cells were infected with 5×10^6 streptococci per well and incubated at 37° C. for 2 h. The non-adherent bacteria were removed by washing three times with PBS. In adherence assays, the epithelial cells were subsequently detached from the well by the addition of trypsin/EDTA and lysed by adding 300 μl of distilled water. Adherent bacteria were quantitated by plating serial dilutions of the lysate onto THY agar plates. For internalization assays the epithelial cells were incubated after 2 h of infection for another 2 h in tissue culture medium supplemented with penicilling G (10 U) and streptomycin (0.01 mg) to kill extracellular bacteria. After three washes with PBS, the epithelial cells were detached by the addition of trypsin/EDTA and lysed in 300 μl of distilled water. The amount of intracellular bacteria was quantified by plating serial dilutions of the lysate onto THY agar plates. Each experiment was repeated at least three times in triplicate. […]
Adherence of S. agalactiae to A549 and HEL299 cells and internalization into these cells was assayed essentially as described in Example 1 for A549 cells. In some experiments, A549 cells were preincubated with different amounts of FbsA protein or FbsA-derived peptides in RPMI medium for 30 min with three subsequent washes with PBS.

A549 cells [3] = experiment: Interaction of protein-coated latex beads with A549 cells (scanning electron microscopy); type: cell-based, human
Description: BSA-coated latex beads were used as a control.
Latex beads were either coated with BSA (A) or FbsA fusion protein (B-D) and the interaction of the coated beads with the lung epithelial cell line A549 was analyzed by scanning electron microscopy.
Approximately […] latex beads (3 μm diameter, Sigma) were washed tree times in PBS and then coated with 300 μg of fusion protein or BSA in 500 μl PBS overnight at 4° C. Coated beads were washed once in PBS and then blocked with 200 μl of 10 mg/ml BSA in PBS for 1 h at room temperature. Beads were washed twice in PBS and once in RPMI+10% FCS and then resupended in 1 ml of RPMI+10% FCS. 300 μl of beads were added to approximately 4×10^5 A549 cells in 24-well plates. The cells were incubated for 1 h at 37° C. (5% CO2), washed five times with PBS and fixed in a solution containing 3% glutaraldehyde and 5% formaldehyde in cacodylate bluffer for 45 min on ice. The samples were washed with cacodylate buffer, dehydrated in a graded series of acetone and subjected to critical point drying with CO2. Samples were then coated with a 10 nm thick gold film and examined by scanning electron microscopy as described previously (Reinscheid et al., 2001a).
Approximately 1×10^9 latex beads (3 μm diameter, Sigma) were washed three times in 25 mM 2-N-morpholinoethanesulfonic acid (MES), pH 6.8. One half was resuspended in 1.0 ml MES buffer containing 500 μg/ml FbsA fusion protein and the remaining half was resuspended in 1.0 ml MES buffer. The beads were incubated overnight at 4° C. with end-over-end rotation. After pelleting of the beads by centrifugation, the amount of remaining protein in the supernatant was determined with a Bradford protein assay kit (BioRad). The beads were washed once with MES buffer and blocked for 1 h with 10 mg/ml BSA in MES buffer at room temperature. The beads were washed twice with MES buffer, once with RPMI+10% FCS, and resuspended in RPMI+10% FCS. Confluent A549 cells in 24-well plates were inoculated with 2×10^8 beads per well in a total volume of 1.0 ml. The bead monolayer mixtures were incubated for 2 h at 37° C. in a 5% CO2 atmosphere. Cells were washed five times with PBS and fixed with 3% paraformaldehyde and 4% glutaraldehyde in […] cacodylate buffer for scanning electron microscopy. Scanning electron microscopy was performed with a Zeiss DSM 962 microscope.

human fibrinogen = biological target: T1, human fibrinogen (Homo sapiens, UniProt P02671+P02675+P02679); experiment: Western blot of fusion proteins for fibrinogen binding; details: His-tagged fusion proteins separated by SDS-PAGE, blotted, probed with human fibrinogen
T1 construct: purchased Sigma-Aldrich
T1 sequence (P02675 31-491): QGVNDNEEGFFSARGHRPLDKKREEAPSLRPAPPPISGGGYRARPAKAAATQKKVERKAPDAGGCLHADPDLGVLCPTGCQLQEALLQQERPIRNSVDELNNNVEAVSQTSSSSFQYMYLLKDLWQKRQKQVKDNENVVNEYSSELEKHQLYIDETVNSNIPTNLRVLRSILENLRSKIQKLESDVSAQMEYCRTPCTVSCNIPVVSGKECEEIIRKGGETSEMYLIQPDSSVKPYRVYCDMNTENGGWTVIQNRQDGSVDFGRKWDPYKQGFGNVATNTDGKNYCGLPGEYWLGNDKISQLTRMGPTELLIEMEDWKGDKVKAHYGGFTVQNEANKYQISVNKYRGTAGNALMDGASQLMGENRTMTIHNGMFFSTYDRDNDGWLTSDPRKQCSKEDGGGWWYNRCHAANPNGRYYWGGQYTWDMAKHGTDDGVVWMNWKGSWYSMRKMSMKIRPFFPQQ
T1 sequence (P02679 27-433): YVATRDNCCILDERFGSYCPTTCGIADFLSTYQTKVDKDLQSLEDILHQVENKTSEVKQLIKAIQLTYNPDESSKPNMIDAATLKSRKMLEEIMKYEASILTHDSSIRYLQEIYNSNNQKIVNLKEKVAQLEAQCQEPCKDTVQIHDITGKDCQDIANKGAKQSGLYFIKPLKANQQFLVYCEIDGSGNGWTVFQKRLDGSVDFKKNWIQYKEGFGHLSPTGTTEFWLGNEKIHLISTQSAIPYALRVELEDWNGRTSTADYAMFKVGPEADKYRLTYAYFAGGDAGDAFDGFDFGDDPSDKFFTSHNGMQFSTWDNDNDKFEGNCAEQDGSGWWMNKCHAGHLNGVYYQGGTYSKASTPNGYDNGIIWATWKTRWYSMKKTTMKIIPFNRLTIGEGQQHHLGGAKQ
T1 sequence (P02671 20-629): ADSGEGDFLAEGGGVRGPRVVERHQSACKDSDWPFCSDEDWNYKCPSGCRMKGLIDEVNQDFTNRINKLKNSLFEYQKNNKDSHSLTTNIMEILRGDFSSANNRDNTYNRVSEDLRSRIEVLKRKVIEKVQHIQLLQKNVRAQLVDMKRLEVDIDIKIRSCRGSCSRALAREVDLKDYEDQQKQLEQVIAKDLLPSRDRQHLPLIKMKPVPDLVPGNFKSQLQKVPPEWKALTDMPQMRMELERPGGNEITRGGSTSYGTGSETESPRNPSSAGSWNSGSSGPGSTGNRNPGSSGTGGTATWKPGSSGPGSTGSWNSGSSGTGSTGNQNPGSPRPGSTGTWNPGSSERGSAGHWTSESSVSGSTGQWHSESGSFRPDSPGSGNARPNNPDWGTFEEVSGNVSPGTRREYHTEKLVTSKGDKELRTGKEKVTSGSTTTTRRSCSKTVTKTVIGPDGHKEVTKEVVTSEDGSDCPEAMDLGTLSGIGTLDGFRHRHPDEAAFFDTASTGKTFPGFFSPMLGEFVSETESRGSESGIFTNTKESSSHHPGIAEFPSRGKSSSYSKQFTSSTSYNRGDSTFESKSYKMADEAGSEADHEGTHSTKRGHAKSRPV
Source text: The fibrinogen binding activity of the three proteins encoded by different constructs are indicated below the schematic FbsA drawing.
The fusion proteins were size-separated by SDS-PAGE, transferred onto a nitrocellulose membrane and tested for fibrinogen binding by Western blotting. Bound fibrinogen was detected with rabbit anti-fibrinogen antibodies, followed by peroxidase-labelled goat anti-rabbit antibodies, and visualized by chemiluminescence. PabC and Gbs0851: full-length fusion proteins; PabC-N: N-terminal 388 amino acids of PabC; PabC-C: C-terminal 222 amino acids of PabC. (C) Identification of the FbsA and PabC-binding sites within human fibrinogen by Western blot analysis. […] Bound fusion proteins were detected with mouse anti-HisTag antibodies, followed by peroxidase-conjugated goat anti-mouse IgG fab fragments and visualized by chemiluminescence. […]
Membranes that had been blocked overnight were incubated for 1 h with 2 μg/ml of human fibrinogen. […] After three washes with PBST and two washes with PBS, bound fibrinogen was detected by chemiluminescence using the ECL-kit (Amersham/Pharmacia). In control experiments, no cross-reactivity of the used antibodies with the immobilized proteins and peptides was detected.

GBS 6313 = experiment: Competitive inhibition of 125I-labelled fibrinogen binding to GBS; parameters: species or system Streptococcus agalactiae; details: increasing concentrations of purified fusion protein
Description: FbsA-9 differs from FbsA-19 in that it contains only 9 repeats in its repeat domain. The binding assay was performed with ^125I-labelled fibrinogen in the presence of different concentrations of each fusion protein. Each experiment was performed at least in triplicate.
Each experiment was performed at least in triplicate.
Purified human fibrinogen was radiolabelled with ^125I, using the chloramin T method (Hunter and Greenwood, 1962). Binding of labelled fibrinogen to GBS was performed essentially as described by Chhatwal et al. (Chhatwal, Muller, and Blobel, 1983). Briefly, overnight cultures of GBS were pelleted by centrifugation, washed twice with phosphate-buffered saline supplemented with 0.02% Tween 20 (PBST) and adjusted photometrically to a transmission of 10% at 600 nm. A total of 0.2 ml of the bacterial suspension was added to 20 μl of ^125I-labelled fibrinogen containing 23 ng of fibrinogen. After incubation for 1 h at room temperature, the streptococci were sedimented by centrifugation and washed with 1 ml of PBST. The radioactivity of the pellet was finally measured in a gamma counter (Packard Instruments). The amount of bacterial-bound fibrinogen was calculated as the percentage of total radiolabelled fibrinogen added to the bacteria. In inhibition experiments, the binding of 23 ng of radiolabelled fibrinogen to 0.2 ml of GBS (T=10%) was determined in the presence of various amounts of FbsA fusion proteins, Bsp fusion protein or synthetic peptides. Each experiment was repeated at least three times in triplicate.

Row | Molecule | reactivity of biotinylated peptides with IgA and IgG antibodies of patient sera [1] | adherence of S. agalactiae 6313 to A549 cells after pre-treatment of the cells (A549 cells [2]) | invasion of A549 cells by S. agalactiae 6313 after pre-treatment of the cells (A549 cells [2]) | binding of protein-coated latex beads to A549 cells (A549 cells [3]) | internalization of protein-coated latex beads into A549 cells (A549 cells [3]) | fibrinogen binding in Western blot (human fibrinogen) | inhibition of binding of 125I-labelled fibrinogen to GBS 6313 (GBS 6313)
1 | GNVLERAQRDAENRSQ ({Biotin-Ahx}-GNVLERAQRDAENRSQ-NH2; SMILES CC(C)C[C@H](NC(=O)[C@@H](NC(=O)[C@H](CC(N)=O)NC(=O)CNC(=O)CCCCCNC(=O)CCCC[C@@H]1SC[C@@H]2NC(=O)N[C@@H]21)C(C)C)C(=O)N[C@@H](CCC(=O)O)C(=O)N[C@@H](CCCNC(=N)N)C(=O)N[C@@H](C)C(=O)N[C@@H](CCC(N)=O)C(=O)N[C@@H](CCCNC(=N)N)C(=O)N[C@@H](CC(=O)O)C(=O)N[C@@H](C)C(=O)N[C@@H](CCC(=O)O)C(=O)N[C@@H](CC(N)=O)C(=O)N[C@@H](CCCNC(=N)N)C(=O)N[C@@H](CO)C(=O)N[C@@H](CCC(N)=O)C(N)=O) [peptide 5] | less well recognized by all sera | – | – | – | – | – | –
2 | GNVLERRQRDAENRSQ ({Biotin-Ahx}-GNVLERRQRDAENRSQ-NH2; SMILES CC(C)C[C@H](NC(=O)[C@@H](NC(=O)[C@H](CC(N)=O)NC(=O)CNC(=O)CCCCCNC(=O)CCCC[C@@H]1SC[C@@H]2NC(=O)N[C@@H]21)C(C)C)C(=O)N[C@@H](CCC(=O)O)C(=O)N[C@@H](CCCNC(=N)N)C(=O)N[C@@H](CCCNC(=N)N)C(=O)N[C@@H](CCC(N)=O)C(=O)N[C@@H](CCCNC(=N)N)C(=O)N[C@@H](CC(=O)O)C(=O)N[C@@H](C)C(=O)N[C@@H](CCC(=O)O)C(=O)N[C@@H](CC(N)=O)C(=O)N[C@@H](CCCNC(=N)N)C(=O)N[C@@H](CO)C(=O)N[C@@H](CCC(N)=O)C(N)=O; listed as Streptococcus agalactiae) [wild type peptide] | less well recognized by all sera | – | – | – | – | – | –
3 | B1 | – | substantially inhibited | substantially inhibited | in high numbers | observed rather rarely | binding to human fibrinogen | substantially inhibited
